In ChEMBL document CHEMBL6109039, “Designed and synthesized novel tripeptides targeting diabetes and its related pathologies” (Eur J Med Chem, 2025):

What was measured:
[1] = compound: N=C(N)NCCC[C@H](N)C(=O)N[C@@H](Cc1c[nH]c2ccccc12)C(=O)N[C@@H](Cc1c[nH]c2ccccc12)C(=O)O; experiment: Inhibition of porcine pancreatic Alpha-amylase using starch as substrate assessed as Km pre-incubated for 20 mins followed by substrate addition and measured after 15 mins by Lineweaver-Burk plot analysis (reference value: 0.657 mM); settings: Sus scrofa; time 35.0 min
[2] = compound: N=C(N)NCCC[C@H](N)C(=O)N[C@@H](Cc1c[nH]c2ccccc12)C(=O)N[C@@H](Cc1c[nH]c2ccccc12)C(=O)O; experiment: Inhibition of porcine pancreatic Alpha-amylase using starch as substrate assessed as maximum velocity pre-incubated for 20 mins followed by substrate addition and measured after 15 mins by Lineweaver-Burk plot analysis (reference value: 0.666); settings: Sus scrofa; time 35.0 min

B1: Pancreatic alpha-amylase (Sus scrofa), P00690 (protein)
chain: MKLFLLLSAFGFCWAQYAPQTQSGRTSIVHLFEWRWVDIALECERYLGPKGFGGVQVSPPNENIVVTNPSRPWWERYQPVSYKLCTRSGNENEFRDMVTRCNNVGVRIYVDAVINHMCGSGAAAGTGTTCGSYCNPGNREFPAVPYSAWDFNDGKCKTASGGIESYNDPYQVRDCQLVGLLDLALEKDYVRSMIADYLNKLIDIGVAGFRIDASKHMWPGDIKAVLDKLHNLNTNWFPAGSRPFIFQEVIDLGGEAIQSSEYFGNGRVTEFKYGAKLGTVVRKWSGEKMSYLKNWGEGWGFMPSDRALVFVDNHDNQRGHGAGGASILTFWDARLYKVAVGFMLAHPYGFTRVMSSYRWARNFVNGQDVNDWIGPPNNNGVIKEVTINADTTCGNDWVCEHRWRQIRNMVWFRNVVDGQPFANWWANGSNQVAFGRGNRGFIVFNNDDWQLSSTLQTGLPGGTYCDVISGDKVGNSCTGIKVYVSSDGTAQFSISNSAEDPFIAIHAESKL
Km [1]: 704 µM
Vmax [2]: 0.574
